Biological target: T1, GST-tagged recombinant PfPHB2 (Plasmodium falciparum (3D7), UniProt Q8IJP8 1-304)
T1 sequence (looked up): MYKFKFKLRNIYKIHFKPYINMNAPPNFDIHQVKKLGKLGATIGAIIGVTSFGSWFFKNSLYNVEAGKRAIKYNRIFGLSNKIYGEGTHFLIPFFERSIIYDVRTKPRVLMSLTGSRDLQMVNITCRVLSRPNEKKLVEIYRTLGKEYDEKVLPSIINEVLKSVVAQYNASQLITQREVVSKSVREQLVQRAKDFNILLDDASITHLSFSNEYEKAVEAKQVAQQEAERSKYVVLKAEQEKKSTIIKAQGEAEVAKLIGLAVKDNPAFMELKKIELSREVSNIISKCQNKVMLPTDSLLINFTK
Assay: MST

B1: GST-tagged recombinant PfPHB1 (natural protein, Plasmodium falciparum (3D7), UniProt Q8IBC3 1-272, looked up)
chain: MERILSSIGKLSVVAGGLSLIPYTFIYDVDGGERCVMFNRFGGVSENTFGEGSHFYVPWFQTPYIYDIKMKPKVINTTTGTRDLQIVTISLRLLFRPHTQHLPYLHSTLGPDYDERVLPSIGNEVLKAVVAKYNAESLLTQRDKISKEIRESITARAKHFNILLDDVAITHLSYGKEFAKAIEDKQVAQQESERVKFIVAKTEQEKIAAVIKAQGEAEAAKLISSAVKEYGKSLIEIRKLEAAKEIAENLSKSKNVTYFPSNSNILLNPRDF
modifications: Lysine reactive dye (Monolith Protein Labelling Kit Red-NHS 2nd Generation), in the MST only
  Kd: 136 ± 10.5 nM
